Source: patent publication US20210330742A1 (RUN X, published 2021)

Molecular target: CDK4 (UniProt P11802 2-303)
Experiment: co-IP and immunoblot, time course after serum stimulation
Experimental: FIG. 2a is a diagram confirming that E2F1 was combined with RUNX3 by measuring the time-dependent formation of BRD2-RUNX3, E2F1-RUNX3, CDK4-RUNX3, Cyclin D1-RUNX3, HDAC4-RUNX3, p16INK4a-CDK4, p21-CDK4, Cyclin D1-CDK4 and HDAC4-CDK4 complexes by immunoprecipitation (IP) and immunoblotting (IB), and the time-dependent phosphorylation of pRB (at Ser-795) and ERK1/2 by immunoblotting (IB).
Transient transfection was performed in all cell lines using lipofectamine plus reagent and lipofectamine (Invitrogen). Cell lysates were incubated with an appropriate monoclonal or polyclonal antibody (2 μg of antibody/500 μg of lysate sample) at 4° C. for 3 hours, followed by incubation with protein G-Sepharose beads (Amersham Pharmacia Biotech, Piscataway, NJ, USA). For the detection of endogenous proteins at 4° C. for 1 hour, the lysate was incubated with an appropriate monoclonal or polyclonal antibody (1:1000-1:3000) at 4° C. for 6 to 12 hours, and then protein G-Sepharose beads (Amersham Pharmacia Biotech) were […] at 4° C. for 3 hours. The immune precipitate was […] on an SDS-polyacrylamide gel electrophoresis (SDS-PAGE) gel and transferred to a PVDF membrane (Millipore, Billerica, Mass., USA). […]

Chain of CDK4 (P11802 2-303 limits assumed): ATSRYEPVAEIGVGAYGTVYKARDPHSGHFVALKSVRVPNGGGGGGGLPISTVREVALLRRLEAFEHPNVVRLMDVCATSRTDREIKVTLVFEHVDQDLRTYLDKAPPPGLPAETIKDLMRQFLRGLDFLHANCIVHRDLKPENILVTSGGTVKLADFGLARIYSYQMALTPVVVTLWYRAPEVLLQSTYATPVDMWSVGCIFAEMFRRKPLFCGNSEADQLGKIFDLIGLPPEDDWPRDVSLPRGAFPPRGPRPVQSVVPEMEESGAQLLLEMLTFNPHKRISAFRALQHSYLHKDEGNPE

binding result: binds
B1: p16INK4a (other, UniProt P42771 1-156, looked up)
chain: MEPAAGSSMEPSADWLATAAARGRVEEVRALLEAGALPNAPNSYGRRPIQVMMMGSARVAELLLLHGAEPNCADPATLTRPVHDAAREGFLDTLVVLHRAGARLDVRDAWGRLPVDLAEELGHRDVARYLRAAAGGTRGSNHARIDAAEGPSDIPD
